Experimental data from the supplement of paper PMC9170038.

Experiments:
MS2 coat protein [1] = assay: apparent KD of MS2 coat protein, switch ON state; designed switch direction (-1 OFF switch, 1 ON switch): -1; higher = weaker reporter binding; conditions: FMN input: 0 or 200 uM; Eterna round: R93 (includes R88 designs)
Procedure, shortened: (§1)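 The buffer was 100 mM Tris-HCl pH 7.5 with 80 mM KCl and 4 mM MgCl2, used without or with constant ligand. In it, RNA switches transcribed on-chip from Illumina sequencing clusters were titrated with SNAP-549-labelled MS2 coat protein in twofold steps from 0.7 or 1.5 nM to 3 µM. Apparent KD for each design is the median of its normalised cluster binding-curve fits.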

MS2 coat protein [2] = assay: apparent KD of MS2 coat protein, switch OFF state (with FMN for OFF switches, without FMN for ON switches); designed switch direction (-1 OFF switch, 1 ON switch): -1; higher = weaker reporter binding; conditions: FMN input: 0 or 200 uM; Eterna round: R93 (includes R88 designs)
Procedure, shortened: as §1

“AGAAAGUCAGGAUAUACGAAUAAGAAUAAAGACGAGAACGGACAUGAGGAUCACCCAUGUAGAAGGGACAAGAA [Diamond 16]” was tested, and the “apparent KD of MS2 coat protein” value (MS2 coat protein [1]) was 51.6 nM and the “apparent KD of MS2 coat protein” value (MS2 coat protein [2]) was 21.8 nM.

With “AGAAAGUCAGGAUAUAUAGGAAAAAUAAAAAAAAUAAAACUAUAGAAGGGACAUGAGGAUCACCCAUGUUAAGA [Mat - Exclusion 4 - Mayanna - D133]” the “apparent KD of MS2 coat protein” value (MS2 coat protein [1]) was 34 nM and the “apparent KD of MS2 coat protein” value (MS2 coat protein [2]) was 17.8 nM.

For “AGAAAGUCAGGAUAUGCAGACAAAGCAAAAAAGCAAUGUCUGCAGAAGGGACAUGAGGAUCACCCAUGUAAAGA [Mat - Exclusion 4 - Mayanna - D117]”, the “apparent KD of MS2 coat protein” value (MS2 coat protein [1]) was 50.3 nM and the “apparent KD of MS2 coat protein” value (MS2 coat protein [2]) was 47.5 nM.

“AGAAAGUGAGGAUAUACAUGAGGAUCACCCAUGUAGAACGAGAGUUAUAAAAAUGGAAGUAGAAGGCACAAAAG [Meechl MS2 Ex3]” was tested, and the “apparent KD of MS2 coat protein” value (MS2 coat protein [1]) was 28.3 nM and the “apparent KD of MS2 coat protein” value (MS2 coat protein [2]) was 32.8 nM.

With “AGAAAUACAGGAUAUACAUGGGAAAAAAAAAAAAAAAUUCUACAUGAGGAUCACCCAUGUAGAAGGGUAUUUCA [Ex2 Design 170: Random 1]” the “apparent KD of MS2 coat protein” value (MS2 coat protein [1]) was 48.2 nM and the “apparent KD of MS2 coat protein” value (MS2 coat protein [2]) was 32 nM.

“AGAUGACAAGGAUAUACUAGGGAUGCUAGUCGAGAAGAAGAACAUGAGGAUCACCCAUGUAGAAGGUGUAAGAA [JR_Exc002_Sub1703]” was tested, and the “apparent KD of MS2 coat protein” value (MS2 coat protein [1]) was 35.4 nM and the “apparent KD of MS2 coat protein” value (MS2 coat protein [2]) was 33.8 nM.

With “AGCAAACAUGAGGAUCACCCAUGUUAGGAUAUGAACGAAAAUAAAUAAAAAUAAAAGUUCAGAAGGGACGAGCA [66%, Wbt, 28]” the “apparent KD of MS2 coat protein” value (MS2 coat protein [1]) was 28.1 nM and the “apparent KD of MS2 coat protein” value (MS2 coat protein [2]) was 37.7 nM.

“AGCAAGAGAGGAUAUACAUAGGAAAAAAAAGUCAGAUCCCUACAUGAGGAUCACCCAUGUAGAAGGCUCUGGCA [Ex2 Design 154: Sub-opt 18]” was tested, and the “apparent KD of MS2 coat protein” value (MS2 coat protein [1]) was 15.1 nM and the “apparent KD of MS2 coat protein” value (MS2 coat protein [2]) was 12.2 nM.

With “AGCAAGUAAGGAUAUGCAAAGUCAGGACACACACUGACGAAGCAGAAGGUACAUGAGGAUCACCCAUGUAAGCA [Mat - Exaclusion 4 - Eli mod - D61]” the “apparent KD of MS2 coat protein” value (MS2 coat protein [1]) was 25.6 nM and the “apparent KD of MS2 coat protein” value (MS2 coat protein [2]) was 18 nM.

In the case of “AGCAAGUCAGGAUAUACGAACAAGACAAAAGACGUGAAGGGACAUGAGGAUCACCCAUGUAGAAGGGACUAGCA [74%, Web mod - With 3 less U's]”, the “apparent KD of MS2 coat protein” value (MS2 coat protein [1]) is reported as 59.8 nM and the “apparent KD of MS2 coat protein” value (MS2 coat protein [2]) is reported as 61.7 nM.

With “AGCAAGUUAGGAUAUGCAAAGUCAGGACACACACUGACGAAGCAGAAGGAACAUGAGGAUCACCCAUGUAAGCA [Mat - Exaclusion 4 - Eli mod - D63]” the “apparent KD of MS2 coat protein” value (MS2 coat protein [1]) was 23.5 nM and the “apparent KD of MS2 coat protein” value (MS2 coat protein [2]) was 17.1 nM.

With “AGCACGUCAGGAUAUACGAAAAAAAAGGGUAAAAAAAAGGGACAUGAGGAUCACCCAUGUAGAAGGGACAAGCA [Diamond 93]” the “apparent KD of MS2 coat protein” value (MS2 coat protein [1]) was 147 nM and the “apparent KD of MS2 coat protein” value (MS2 coat protein [2]) was 172 nM.

For “AGCACGUCAGGAUAUACGAACAAAACGGGAGAACUAAAGGGACAUGAGGAUCACCCAUGUAGAAGGGACAAGCA [Diamond 91]”, the “apparent KD of MS2 coat protein” value (MS2 coat protein [1]) was 85.6 nM and the “apparent KD of MS2 coat protein” value (MS2 coat protein [2]) was 91.1 nM.

For “AGCAGUACAGGAUAUACAUGAGGAUCACCCAUGUGAAAAGAAAGUGGCGUACCACAAAGUAGAAGGGUACUGCA [Mat - Exclusion 3 - JL mod - D33]”, the “apparent KD of MS2 coat protein” value (MS2 coat protein [1]) was 27.9 nM and the “apparent KD of MS2 coat protein” value (MS2 coat protein [2]) was 180 nM.

With “AGCUAGUCAGGAUAUACAAAAAUGAUAGAAGACGUAAGGGAACAUGAGGAUCACCCAUGUAGAAGGGACUAGCA [Diamond 44]” the “apparent KD of MS2 coat protein” value (MS2 coat protein [1]) was 41 nM and the “apparent KD of MS2 coat protein” value (MS2 coat protein [2]) was 129 nM.

In the case of “AGCUAGUCAGGAUAUACAAAAAUGCUAGAAGACGUAAGGGAACAUGAGGAUCACCCAUGUAGAAGGGACUAGCA [Diamond 45]”, the “apparent KD of MS2 coat protein” value (MS2 coat protein [1]) is reported as 37.2 nM and the “apparent KD of MS2 coat protein” value (MS2 coat protein [2]) is reported as 58.3 nM.

With “AGCUAGUCAGGAUAUACAUGAAAAAAAAAAAAAAAAAAAAAACAUGAGGAUCACCCAUGUAGAAGGGACUAGCA [Starry Esclusion 2 (jandersonlee round 1 mod)]” the “apparent KD of MS2 coat protein” value (MS2 coat protein [1]) was 95.6 nM and the “apparent KD of MS2 coat protein” value (MS2 coat protein [2]) was 98.9 nM.
